Assay results: US20210236649A1 (ICONIC THERAPEUTICS, published 2021)

B1: Human Factor VIIa (human plasma FVIIa) (enzyme, UniProt P08709 61-466, looked up)
chain: ANAFLEELRPGSLERECKEEQCSFEEAREIFKDAERTKLFWISYSDGDQCASSPCQNGGSCKDQLQSYICFCLPAFEGRNCETHKDDQLICVNENGGCEQYCSDHTGTKRSCRCHEGYSLLADGVSCTPTVEYPCGKIPILEKRNASKPQGRIVGGKVCPKGECPWQVLLLVNGAQLCGGTLINTIWVVSAAHCFDKIKNWRNLIAVLGEHDLSEHDGDEQSRRVAQVIIPSTYVPGTTNHDIALLRLHQPVVLTDHVVPLCLPERTFSERTLAFVRFSLVSGWGQLLDRGATALELMVLNVPRLMTQDCLQQSRKVGDSPNITEYMFCAGYSDGSKDSCKGDSGGPHATHYRGTWYLTGIVSWGQGCATVGHFGVYTRVSQYIEWLQKLMRSEPRPGVLLRAPFP
notes: also called hFVIIa; Human FVIIa
B2: Lipidated rabbit tissue factor (receptor, UniProt P24055 33-292, looked up)
chain: ADTTGRAYNLTWKSTNFKTILEWEPKSIDHVYTVQISTRLENWKSKCFLTAETECDLTDEVVKDVGQTYMARVLSYPARNGNTTGFPEEPPFRNSPEFTPYLDTNLGQPTIQSFEQVGTKLNVTVQDARTLVRRNGTFLSLRAVFGKDLNYTLYYWRASSTGKKTATTNTNEFLIDVDKGENYCFSVQAVIPSRKRKQRSPESLTECTSREQGRAREMFFIIGAVVVVALLIIVLSVTVYKCRKARAGPSGKESSPLNIA
notes: Amine-coupled as a proteoliposome to flow cell 2 of the Biacore chip; Also used to start thrombin generation in rabbit plasma; also called rTF; rabbit TF

Assays:
[1] = target: B2; assay: SPR (Biacore)
Protocol: (§1) The GE procedure for proteoliposome immobilization (amine coupling) protocol was used to coat PS/PC/rTF on flow cell 2, and PS/PC/hTF on flow cell 3. Flow cells were equilibrated with running buffer (15 mM Hepes, 150 mM NaCl, 5 mM CaCl2, 25 mM Arginine, 0.01% Tween 80, pH7.4) at a flow rate of 5 μL/min. Kinetic analyses were performed at 37° C. by flowing consecutively increasing concentrations of each analyte […] in the running buffer (15 mM. HEPES, 150 mM NaCl, 5 mM CaCl2, 25 mM Arginine, 0.01% Tween 80, pH 7.4) over the sensor chip for 5 min followed by a 10 min dissociation period at a flow rate of 30 μL/min in parallel.
(§2) Analyte binding to the lipidated TF was determined by subtracting the RU values noted in the reference flow cell 1 from flow cell 2 and 3. Binding of analytes to the TFs was monitored in real time to obtain on (ka) and off (kd) rates. The equilibrium dissociation constant (KD) was calculated from the observed ka and kd.

[2] = target: B1; assay: SPR (Biacore 3000), lipidated rabbit TF on chip
Protocol: as §1, §2
(§3) Based on the saturation concentration of the analyte, binding analysis was performed using saturating analyte concentrations of 0-500 nM for rabbit TF and 0-50 nM for human TF. Chi squared (χ²) analysis was carried out between the actual sensorgram and the calculated on- and off-rates to determine the accuracy of the analysis.

[3] = target: B1; assay: SPR (Biacore 3000), lipidated rabbit TF amine-coupled, analyte 0-500 nM, 37 C
Protocol: as §1, §2, §3

Binder	fold lower affinity than to lipidated hTF [1] [fold]	Kd [2] [nM]	Ka [3] [M⁻¹]	Kd [3] [nM]	koff [3] [s⁻¹]	kon [3] [M⁻¹ s⁻¹]
B1	~10					
B2		39.5	2.5e+07	40	0.0014	34000
